PMC5685503

Target: isolated phosphodiesterase (PDE) domain of RhoPDE (Salpingoeca rosetta) (UniProt F2TZN0)
Experiment: SEC

isolated phosphodiesterase (PDE) domain of RhoPDE (from UniProt F2TZN0 386-702) (domain or fragment)
stoichiometry N: 2
